In PMC12377726 (Proceedings of the National Academy of Sciences of the …, 2025):
Numbering of substitutions follows the chain as printed.

B1: G001_gp1_V10_VRC01c_170 (antibody, V domains shown)
VH: QVQLVQSGAEVKKPGASVKVSCKASGYTFTDYYMHWVRQAPGQGLEWMGWINPNSGGTNYAQKFQDRVTMTRDTSISTGYMELRRLRSDDTAVYYCASHHLTSQGPWWFDPWGQGTLLTVSS
VL: EIVLTQSPGTLSLSPGERATLSCRASQSVSSSYLVWYQQKPGQAPRLLIYGASSRATGIPDRFSGRGSGTDFTLTISRLESEDFAVYFCQQYETFGQGTKVEIK
B2: G001_gp1_V10_VRC01c_171 (antibody, V domains shown)
VH: QVQLVQSGAEVKRPGASVKVSCKASGYTFTDYYIHWVRQAPGQGLEWMGWINPNSGGTNYARKFQGRVTMTRHTSIGTAYMELSRLRSDDTAVYYCARHIVAAGTWAFDIWGQGTMVTVSS
VL: B1 VL with V35A, S64R, R66S, S81P, F88Y
B3: G001_gp1_V10_VRC01c_172 (antibody, V domains shown)
VH: QVQLVQSGAEVKKPGASVKVSCKASGYTFTGYYFYWVRQAPGQGLEWMGWINPNSGGTNSPQKFQGRVSMTRDTSISTAYMEVSSLRSDDTAVYYCARRFTSMGVALDYWGQGTLVTVSS
VL: EIVLTQSPGTLSLSPGERATLSCRASQSVSSSSLAWYQQKPGQAPRLLIFGTSSRATGIPDRFSGSGSGTDFTLTISRLEPEDFAVYYCQQYDSFGQGTRLEIK
B4: G001_gp1_V10_VRC01c_173 (antibody, V domains shown)
VH: QVQLVQSGADVKKPGASVKVSCKASGYTLTGYYMHWVRQAPGQGLEWMGWINANSGGTNYAQKFQGRVTMTRDTSISTVYMELSRLRSDDTAVYYCAHRAGYCSGGGCSWYFDLWGRGTLVTVSS
VL: DIQMTQSPSTLSASVGDRVTITCRASQSSSGWLAWYQQKPGKAPKLLIYKASSLESGVPSRFSGSGSGTEFTLTISSLQPDDFATYYCQQYEAFGQGTKVEIK
B5: G001_gp1_V10_VRC01c_174 (antibody, V domains shown)
VH: QVQLVQSGAEVKKPGATVKVSCKASGYTLTDYYMHWVRQAPGQGLEWMGWMNPNSGGTNYGRKFQGRVTMTRDTSINTAYMELSRLRSDDTAVYFCARAREKWPFDYWGQGTLVTVSS
VL: DIQMTQSPASLSASVGDRVTITCQASQDISNYVNWYQQKPGKAPKLLINGASNLETGVPSRFSGSGSGTDFTFTISSLQPEDIATYYCQQYENFGPGTKVDIK
B6: G001_gp1_V10_VRC01c_175 (antibody, V domains shown)
VH: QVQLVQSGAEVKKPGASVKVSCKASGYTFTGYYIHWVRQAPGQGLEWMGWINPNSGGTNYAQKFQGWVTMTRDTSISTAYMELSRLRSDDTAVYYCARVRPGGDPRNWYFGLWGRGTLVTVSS
VL: B5 VL with A9S, V33L, N49Y, G50D, Y91W, E92D, N93T, P96Q, V100L, D101E
B7: G001_gp1_V10_VRC01c_176 (antibody, V domains shown)
VH: QVQLVQSGAEVKRPGASVKVSCRASGYTFTGYYMHWVRQAPGQGLEWMGWINPNSGGTNYAQKFQGRVTMTRDTSITTAYMELSRLNYDDTAVYYCARGDDSSAWRFHSWGQGTLITVSS
VL: B5 VL with A9S, I29S, V33L, N49Y, G50D, N93T, P96G, D101E
B8: G001_gp1_V10_VRC01c_177 (antibody, V domains shown)
VH: not shown
VL: B4 VL with S28T, S29I, G31S, K50D, S76T, A93T, Q96P, E101D
B9: G001_gp1_V10_VRC01c_181 (antibody, V domains shown)
VH: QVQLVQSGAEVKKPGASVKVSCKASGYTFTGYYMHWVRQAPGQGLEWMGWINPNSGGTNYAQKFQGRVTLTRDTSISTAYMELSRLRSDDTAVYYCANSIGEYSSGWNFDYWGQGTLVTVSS
VL: B5 VL with A9S, V33L, N49Y, G50Y, E92G, N93T, P96Q, V100L, D101E
B10: G001_gp1_V10_VRC01c_182 (antibody, V domains shown)
VH: QLQLVQSGAEVKKPGASVKVSCQASGFTFSGHYMHWVRQAPGHGLEWMGWINTNSGGTNYARKFQGRVTMTRDTSISTAYMELSRLRSDDTAVYYCATSVWFGASVWNFDNWGQGSLVTVSS
VL: ENVLTQSPATLSLSPGERATLSCRASQSVSTHNLAWYQQKPGQAPRLLIYGVFSRATGIPDRFSGSGSGTDFTLTISSLEPEDTAVYYCQQYETFGQGTNVEIK
B11: G001_gp1_V10_VRC01c_183 (antibody, V domains shown)
VH: QVHPVQSGAEVKKPGASVKVSCEASGYTFSGYYMHWVRQAPGQGLEWMGWINLNSGGTNYAQKFQDRVTMTRDTSISTAYMELSSLRSDDTAFYYCAHNGGNGGTWYFHYWGQGTLVTVSS
VL: EIVLTQSPGTLSLSPGERATLSCRASQSVSNNYLAWYQQKPGQAPRLLIYGASRRATGIPDRFSGSGTGTDFTLTISRLEPEDSAVYYCQQYETFGPGTKVDIK
B12: G001_gp1_V10_VRC01c_184 (antibody, V domains shown)
VH: QVQLVQSGAEVKKPGASVKVSCKASGYTFTAYYMHWVRQAPGQGLEWMGWINPNSGGTNYAQKFQGRVTMTRDTSITTAYMELSRLRSDDTAVYYCAIESVVRHSWFDPWGQGTLVTVSS
VL: B1 VL with S28N, V35A, G51Y, S54I, R66S, D71A, S81P, F88Y, T94A
B13: G001_gp1_V10_VRC01c_2021-0086 (antibody, V domains shown)
VH: not shown
VL: EIVMTQSPATLSVSPGERATLSCRASQSVSSNLAWYQQKPGQAPRLLIYGASTRATGIPARFSGSGSGTEFTLTISSLQSEDFAVYYCQQYQTFGQGTKLEIK
B14: G001_gp1_V10_VRC01c_2021-0088 (antibody, V domains shown)
VH: QVQLVQSGAEVKKPGASVKVSCKASGYTFTGYYMHWVRQAPGQGLEWMGWINPNSGGTNYAQKFQDWVTMTRDTSISTAYMELSRLRSDDTAVYFCARVKGHYDSSGGWNFDLWGRGTLVTVSS
VL: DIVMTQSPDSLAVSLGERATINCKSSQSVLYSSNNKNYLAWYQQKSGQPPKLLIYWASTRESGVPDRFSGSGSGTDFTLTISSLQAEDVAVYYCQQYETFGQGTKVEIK
B15: G001_gp1_V10_VRC01c_2021-0090 (antibody, V domains shown)
VH: not shown
VL: DNQMTQSPSSLSASVGDRVTITCRASQGISNSLAWYQQKPGKAPKLLLYASSRLESGVPSRFSGSGSGTDYTLTISSLQPEDFATYYCQQYETFGQGTKVEIK
B16: G001_gp1_V10_VRC01c_2021-0092 (antibody, V domains shown)
VH: QVQLVQSGAEVKKPGASVKVSCKASGYTFTGYYMHWVRQAPGHGLEWMGWINPNSGGSNYAQRFQGWVTMTRDTSISTAYMELTRLRSDDTAVYYCARELLAAAGTVFDYWGQGTLVTVSS
VL: B1 VL with V35A, R66S, S81P, F88Y, K104N
B17: G001_gp1_V10_VRC01c_2021-0093 (antibody, V domains shown)
VH: QVQLVQSGAEVHNPGASVKVSCKASGYTFSDHYIHWVRQAPGQGLEWMGWINPNSGGTNYAQKFQGWVSMTRDTSITTAYMELSRLRSADTAVYYCAIPGICPGGNCYSYYFDSWGQGTLVSVSS
VL: EIVLTQSPGTLSVSPGERATLSCRSSQSVSSLAWYQLKPGQAPRLLIYGAYNRAIGIPDRFSGSGSGTDFTLTISRLEPEDLAVYYCQQYEFFGQGTKLEIK
B18: G001_gp1_V10_VRC01c_2021-0094 (antibody, V domains shown)
VH: QVQLVQSGAEVKKPGASVKVSCKASGYTFTGYYMHWVRQAPGQGLEWMGWINPNSGGTNYAEKFQGWVTMTRDTSISTAYMELRRLKSDDTAVYYCATSLGGNPGRIWDMDVWGQGTTVTVSS
VL: QSALTQPASVSGSPGQSITISCTGTSSDVGGYNFVSWYQQHPGKAPKLIIYDVTNRPSGVSNRFSGSKSGNTASLTISGLQAEDEANYYCSSYEVFGTGTKVTVL
B19: G001_gp1_V10_VRC01c_2021-0095 (antibody, V domains shown)
VH: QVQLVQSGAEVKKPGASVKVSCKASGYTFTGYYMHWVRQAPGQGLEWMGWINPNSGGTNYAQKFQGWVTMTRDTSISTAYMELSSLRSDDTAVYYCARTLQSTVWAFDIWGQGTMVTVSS
VL: DIQMTQSPSSLSASVGDRVTITCQASQDISNYLNWYQQKPGKAPQLLIYDASNLETGVPSRFSGRGSGTDFTFTISSLQPEDIATYYCQQYDTFGQGTRLEIK
B20: G001_gp1_V10_VRC01c_2021-0096 (antibody, V domains shown)
VH: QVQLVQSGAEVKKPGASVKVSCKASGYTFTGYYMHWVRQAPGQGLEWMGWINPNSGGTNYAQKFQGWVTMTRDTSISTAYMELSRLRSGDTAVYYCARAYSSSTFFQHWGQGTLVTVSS
VL: B13 VL with F83L, Q92T, T93A, L100V
B21: G001_gp1_V10_VRC01c_2021-0097 (antibody, V domains shown)
VH: QVQLVQSGAEVKKPGASVKVSCKASGHTFTGYYMHWVRQAPGQGLEWMGWINSNSGGTNYAQKFQGWVTMTRDTSINTVYMELNRLTSDDTAVYYCAGGGRSTYYSWWFDPWGQGTLVTVSS
VL: B1 VL with V35A, R66S, S81P, F84L, F88Y, Y92W
B22: G001_gp1_V10_VRC01c_2021-0098 (antibody, V domains shown)
VH: B21 VH with H27N, T30S, S53P, N77S, V79A, N84S, T87R, G98R, T103A
VL: B1 VL with V35A, S53F, R66S, S81P, F88Y, Y92W
B23: G001_gp1_V10_VRC01c_2021-0099 (antibody, V domains shown)
VH: QVQLVQSGAEVKKPGASVKVSCKASGNTFTDYYMYWVRQAPGQGLEWMGWINPNSGGTNYAQKFQGRVTMTRDTSISTAYMELSRLRSDDTAVYYCAGRHYDDSSGYKAFQHWGQGTLVTVSS
VL: B4 VL with S29F, G31S, F83V, A93T
B24: G001_gp1_V10_VRC01c_2021-0100 (antibody, V domains shown)
VH: PVQLVQSGAEVKKPGASVKVSCKASGYTFTGYYIHWVRQAPGQGLEWMGWINPNSGGTNYAQKFQGRVTMTRDTSVSTAYMELSRLRSDDTAVYYCARRLAAASGVFGVRFDPWGQGTLVTVSS
VL: B5 VL with A9S, V19I, V33L, K39R, N49Y, G50D, E92D, N93F
B25: G001_gp1_V10_VRC01c_2021-0101 (antibody, V domains shown)
VH: QVHLVQSGAEVKKPGASVKVSCKASGYTFTGYSMHWVRQAPGQGLEWMGWINPNSGGTNYAQKFQGRVTMTRDTSINTGYMELSRLRSDDTAVYYCARPHSNWYFDLWGRGTLVTVSS
VL: B1 VL with S32N, V35A, R66S, S81P, F88Y
B26: G001_gp1_V10_VRC01c_2021-0103 (antibody, V domains shown)
VH: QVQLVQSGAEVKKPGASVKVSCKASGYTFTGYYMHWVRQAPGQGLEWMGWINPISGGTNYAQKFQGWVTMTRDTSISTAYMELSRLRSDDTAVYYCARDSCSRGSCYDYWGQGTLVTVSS
VL: QSALTQPRSVSGSPGQSVTISCTGTSSDVGGYNYVSWYQQHPGKAPKLMIYDVSKRPSGVPDRFSGSKSGNTASLTISGLQAEDEADYYCCSYEVFGGGTKLTVL
B27: G001_gp1_V10_VRC01c_2021-0104 (antibody, V domains shown)
VH: QVHLVQSGAEVKKPGASVKVSCKASGYSFTDYYIYWVRQAPGQGLEWMGWINPNSGGTNYAQKFQAWVTMTRDTSISTAYMELNRLTSDDTAVYYCARRTMPTTEFDSWGQGTLVTVSS
VL: EIVLTQSPGTLSLSPGERVTLSCRASQSLSNNYLAWYQQKPGQAPRLLIYGVSNRATGIPDRFRGSGSGTDFTLTISRLEPEDCAVYYCQQYVSFGQGTKLEIK

Each binder was assayed against eOD-GT8 (engineered outer domain germline-targeting version 8), monomer (HIV-1 gp120 engineered outer domain, …).

Binder | binding result
B1 | binds
B2 | binds
B3 | binds
B4 | binds
B5 | binds
B6 | binds
B7 | binds
B8 | binds
B9 | binds
B10 | binds
B11 | binds
B12 | binds
B13 | binds
B14 | binds
B15 | binds
B16 | binds
B17 | binds
B18 | binds
B19 | binds
B20 | binds
B21 | binds
B22 | binds
B23 | binds
B24 | binds
B25 | binds
B26 | binds
B27 | binds
